The record followed here is US20110166062A1 (INDIANA UNIVERSITY RESEARCH AND TECHNOLOGY, published 2011).

Bridges are numbered along the chain shown (N, C = ends). Where no end group is shown, it is not given here.

The target in one test is GLP-1 receptor (UniProt P43220 24-463, limits assumed). The test can be described thus: cell-based or functional assay.
A further test has as its target T1, GIP receptor (UniProt P48546 22-466).
T1 sequence (looked up): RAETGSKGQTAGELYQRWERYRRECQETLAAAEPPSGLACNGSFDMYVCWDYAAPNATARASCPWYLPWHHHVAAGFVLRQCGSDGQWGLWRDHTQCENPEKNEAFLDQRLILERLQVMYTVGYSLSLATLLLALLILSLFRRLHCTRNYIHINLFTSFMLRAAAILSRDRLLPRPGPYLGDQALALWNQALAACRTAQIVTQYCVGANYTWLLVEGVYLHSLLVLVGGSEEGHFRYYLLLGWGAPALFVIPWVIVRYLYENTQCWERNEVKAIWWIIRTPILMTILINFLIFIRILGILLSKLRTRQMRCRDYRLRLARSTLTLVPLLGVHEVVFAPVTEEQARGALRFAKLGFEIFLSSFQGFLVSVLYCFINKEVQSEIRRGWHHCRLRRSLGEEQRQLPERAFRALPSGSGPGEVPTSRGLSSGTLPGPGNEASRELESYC
The test can be described thus: cell-based or functional assay.

B1: mt-63 (peptide)
peptide: HSQGTFTSDYSKYLDEIHQKEFIAWLMNT-NH2
modifications: lactam 12-16; N-terminus assumed
SMILES: CC[C@H](C)[C@H](NC(=O)[C@H](Cc1ccccc1)NC(=O)[C@H](CCC(=O)O)NC(=O)[C@H](CCCCN)NC(=O)[C@H](CCC(N)=O)NC(=O)[C@H](Cc1c[nH]cn1)NC(=O)[C@@H](NC(=O)[C@@H]1CCC(=O)NCCCC[C@H](NC(=O)[C@H](CO)NC(=O)[C@H](Cc2ccc(O)cc2)NC(=O)[C@H](CC(=O)O)NC(=O)[C@H](CO)NC(=O)[C@@H](NC(=O)[C@H](Cc2ccccc2)NC(=O)[C@@H](NC(=O)CNC(=O)[C@H](CCC(N)=O)NC(=O)[C@H](CO)NC(=O)[C@@H](N)Cc2c[nH]cn2)[C@@H](C)O)[C@@H](C)O)C(=O)N[C@@H](Cc2ccc(O)cc2)C(=O)N[C@@H](CC(C)C)C(=O)N[C@@H](CC(=O)O)C(=O)N1)[C@@H](C)CC)C(=O)N[C@@H](C)C(=O)N[C@@H](Cc1c[nH]c2ccccc12)C(=O)N[C@@H](CC(C)C)C(=O)N[C@@H](CCSC)C(=O)N[C@@H](CC(N)=O)C(=O)N[C@H](C(N)=O)[C@@H](C)O
As a reminder, the EC50 is the concentration needed to bring the measured effect to its halfway point. Low values mean greater potency, high ones weaker potency. Consider B1, for which the “EC50” value in the test with GLP-1 receptor was 0.31 nM.

B2: mt-101 (peptide)
peptide: YAPGTFISDYSIAMDKIHQQDFVNWLLAQKGKKNWLKHNITQ-NH2
In the case of B2, in the test with GIP receptor, the “EC50” value stood at 71.3 nM and the relative activity was determined as 0.06%.

B3: mt-68 (peptide)
peptide: HSQGTFTSDYSKYLDKIHQEEFIAWLMNT-NH2
On to B3, for which the “EC50” value in the test with GLP-1 receptor amounted to 0.82 nM.

B4: mt-61 (peptide)
peptide: HSQGTFTSDYSKYLDEIHQKEFIAWLMNT-NH2
modifications: lactam 16-20; N-terminus assumed
SMILES: CC[C@H](C)[C@H](NC(=O)[C@H](Cc1ccccc1)NC(=O)[C@H](CCC(=O)O)NC(=O)[C@@H]1CCCCNC(=O)CC[C@H](NC(=O)[C@H](CC(=O)O)NC(=O)[C@H](CC(C)C)NC(=O)[C@H](Cc2ccc(O)cc2)NC(=O)[C@H](CCCCN)NC(=O)[C@H](CO)NC(=O)[C@H](Cc2ccc(O)cc2)NC(=O)[C@H](CC(=O)O)NC(=O)[C@H](CO)NC(=O)[C@@H](NC(=O)[C@H](Cc2ccccc2)NC(=O)[C@@H](NC(=O)CNC(=O)[C@H](CCC(N)=O)NC(=O)[C@H](CO)NC(=O)[C@@H](N)Cc2c[nH]cn2)[C@@H](C)O)[C@@H](C)O)C(=O)N[C@@H]([C@@H](C)CC)C(=O)N[C@@H](Cc2c[nH]cn2)C(=O)N[C@@H](CCC(N)=O)C(=O)N1)C(=O)N[C@@H](C)C(=O)N[C@@H](Cc1c[nH]c2ccccc12)C(=O)N[C@@H](CC(C)C)C(=O)N[C@@H](CCSC)C(=O)N[C@@H](CC(N)=O)C(=O)N[C@H](C(N)=O)[C@@H](C)O
As for B4, the “EC50” value in the test with GLP-1 receptor turned out to be 0.18 nM; in the test with GIP receptor, 9.99 nM.

B5: mt-127 (peptide)
peptide: YSQGTFTSDYSKYLDEQAAKEFVNWLLAGGPSSGAPPPS-NH2
modifications: lactam 16-20; N-terminus assumed
SMILES: CC(C)C[C@H](NC(=O)[C@H](CC(C)C)NC(=O)[C@H](Cc1c[nH]c2ccccc12)NC(=O)[C@H](CC(N)=O)NC(=O)[C@@H](NC(=O)[C@H](Cc1ccccc1)NC(=O)[C@H](CCC(=O)O)NC(=O)[C@@H]1CCCCNC(=O)CC[C@H](NC(=O)[C@H](CC(=O)O)NC(=O)[C@H](CC(C)C)NC(=O)[C@H](Cc2ccc(O)cc2)NC(=O)[C@H](CCCCN)NC(=O)[C@H](CO)NC(=O)[C@H](Cc2ccc(O)cc2)NC(=O)[C@H](CC(=O)O)NC(=O)[C@H](CO)NC(=O)[C@@H](NC(=O)[C@H](Cc2ccccc2)NC(=O)[C@@H](NC(=O)CNC(=O)[C@H](CCC(N)=O)NC(=O)[C@H](CO)NC(=O)[C@@H](N)Cc2ccc(O)cc2)[C@@H](C)O)[C@@H](C)O)C(=O)N[C@@H](CCC(N)=O)C(=O)N[C@@H](C)C(=O)N[C@@H](C)C(=O)N1)C(C)C)C(=O)N[C@@H](C)C(=O)NCC(=O)NCC(=O)N1CCC[C@H]1C(=O)N[C@@H](CO)C(=O)N[C@@H](CO)C(=O)NCC(=O)N[C@@H](C)C(=O)N1CCC[C@H]1C(=O)N1CCC[C@H]1C(=O)N1CCC[C@H]1C(=O)N[C@@H](CO)C(N)=O
Regarding B5, the “EC50” value with GLP-1 receptor came to 0.055 nM; in the test with GIP receptor, 0.518 nM.

B6: mt-139 (peptide)
peptide: YSQGTFTSDYSKYLDEQAAKEFIAWLLAGGPSSGAPPPS-NH2
modifications: lactam 16-20; N-terminus assumed
SMILES: CC[C@H](C)[C@H](NC(=O)[C@H](Cc1ccccc1)NC(=O)[C@H](CCC(=O)O)NC(=O)[C@@H]1CCCCNC(=O)CC[C@H](NC(=O)[C@H](CC(=O)O)NC(=O)[C@H](CC(C)C)NC(=O)[C@H](Cc2ccc(O)cc2)NC(=O)[C@H](CCCCN)NC(=O)[C@H](CO)NC(=O)[C@H](Cc2ccc(O)cc2)NC(=O)[C@H](CC(=O)O)NC(=O)[C@H](CO)NC(=O)[C@@H](NC(=O)[C@H](Cc2ccccc2)NC(=O)[C@@H](NC(=O)CNC(=O)[C@H](CCC(N)=O)NC(=O)[C@H](CO)NC(=O)[C@@H](N)Cc2ccc(O)cc2)[C@@H](C)O)[C@@H](C)O)C(=O)N[C@@H](CCC(N)=O)C(=O)N[C@@H](C)C(=O)N[C@@H](C)C(=O)N1)C(=O)N[C@@H](C)C(=O)N[C@@H](Cc1c[nH]c2ccccc12)C(=O)N[C@@H](CC(C)C)C(=O)N[C@@H](CC(C)C)C(=O)N[C@@H](C)C(=O)NCC(=O)NCC(=O)N1CCC[C@H]1C(=O)N[C@@H](CO)C(=O)N[C@@H](CO)C(=O)NCC(=O)N[C@@H](C)C(=O)N1CCC[C@H]1C(=O)N1CCC[C@H]1C(=O)N1CCC[C@H]1C(=O)N[C@@H](CO)C(N)=O
Turning to B6, the “EC50” value with GLP-1 receptor is 0.142 nM; in the test with GIP receptor it was 0.569 nM.

B7: mt-69 (peptide)
peptide: HSQGTFTSDYSKYLDKIHQEEFIAWLMNT-NH2
modifications: lactam 16-20; N-terminus assumed
SMILES: CC[C@H](C)[C@H](NC(=O)[C@H](Cc1ccccc1)NC(=O)[C@H](CCC(=O)O)NC(=O)[C@@H]1CCC(=O)NCCCC[C@H](NC(=O)[C@H](CC(=O)O)NC(=O)[C@H](CC(C)C)NC(=O)[C@H](Cc2ccc(O)cc2)NC(=O)[C@H](CCCCN)NC(=O)[C@H](CO)NC(=O)[C@H](Cc2ccc(O)cc2)NC(=O)[C@H](CC(=O)O)NC(=O)[C@H](CO)NC(=O)[C@@H](NC(=O)[C@H](Cc2ccccc2)NC(=O)[C@@H](NC(=O)CNC(=O)[C@H](CCC(N)=O)NC(=O)[C@H](CO)NC(=O)[C@@H](N)Cc2c[nH]cn2)[C@@H](C)O)[C@@H](C)O)C(=O)N[C@@H]([C@@H](C)CC)C(=O)N[C@@H](Cc2c[nH]cn2)C(=O)N[C@@H](CCC(N)=O)C(=O)N1)C(=O)N[C@@H](C)C(=O)N[C@@H](Cc1c[nH]c2ccccc12)C(=O)N[C@@H](CC(C)C)C(=O)N[C@@H](CCSC)C(=O)N[C@@H](CC(N)=O)C(=O)N[C@H](C(N)=O)[C@@H](C)O
For B7, the “EC50” value with GLP-1 receptor is 0.41 nM. For the same molecule, in the test with GIP receptor, the “EC50” value turned out to be 14.6 nM and the relative activity stood at 0.57%.
